In US20110195068A1, “PD-1 ANTAGONISTS AND METHODS OF USE THEREOF” (priority 2008, published 2011):

Experiments:
[1] = molecular target: T1, recombinant mouse PD-1/Fc (Mus musculus, UniProt Q02242); assay: PD-1 binding ELISA, murine B7-DC-Ig; settings: plates coated with recombinant mouse PD-1/Fc, compared with wild type, FIG. 1B
T1 construct: Fc; purchased R&D Systems
Method: 96-well ELISA plates were coated with 100 μL 0.75 ug/mL recombinant mouse PD-1/Fc (R&D Systems) diluted in BupH Carbonate/Bicarbonate pH 9.4 buffer (Pierce) for 2 hours and then blocked with BSA solution (Candor-Bioscience) for 90 minutes. […] Absorbance at 450 nm was read using a plate reader (Molecular Devices) and data were analyzed in SoftMax using a 4-parameter logistic fit.

[2] = test system: CT26 colorectal tumor cells; settings: CTX 100 mg/kg alone, day 10; all mice in the group
Method: Mouse colorectal tumor cell line, CT26, was obtained from ATCC. A master cell bank at Passage 4 was generated following ATCC guidelines.
One vial of tumor cells was thawed from the cryopreserved stocks and grown for two passages prior to inoculation.
CT26 cells were split at 1:5 dilution with 30 mL complete medium (RPMI+10% FBS, 2 mM L-Glu, and 1×P/S) for two days culture or at 1:10 dilution with 30 ml complete medium for 3 days culture.
CT26 cells were harvested by aspirating medium, rinsing the flask with 5 mL PBS, adding 5 mL trypsin, incubating at 37° C. for 2 min, and then neutralizing with 10 mL complete medium. After centrifuge at 600×g (˜1000 rpm) for 5 min, media was aspirated and the cell pellet was resuspended by pipetting with 10 ml plain RPMI. This wash step was repeated for three times.
Cell number and viability of the inoculated cells were analyzed by trypan blue dye staining with proper dilution (e.g. 1:5 dilution, 10 μL cells+40 μL trypan blue) and confirmed by NOVA cell count during the last wash step.
On Day 9, all the tumor-bearing mice were first grouped into a rat cage and randomly divided the mice to experimental groups. CTX solution was reconstituted by 1×PBS to 4 mg/mL. Mice were intraperitoneally (IP) injected with 0.5 mL of CTX solution resulting in 2 mg for a 20 gram mouse, i.e. 100 mg/kg.
The same dose was given 2 time a week for 4 weeks, total 8 doses.

[3] = molecular target: T2, recombinant human PD-1/Fc (Homo sapiens, UniProt Q15116); assay: PD-1 binding ELISA, human B7-DC-Ig; settings: plates coated with recombinant human PD-1/Fc, four different lots, FIG. 1A
T2 construct: Fc; purchased R&D Systems
Method: 96-well ELISA plates were coated with 100 μL 0.75 ug/mL recombinant human PD-1/Fc (R&D Systems) diluted in BupH Carbonate/Bicarbonate pH 9.4 buffer (Pierce) for 2 hours and then blocked with BSA solution (Jackson ImmunoResearch) for 90-120 minutes. […] Absorbance at 450 nm was read using a plate reader (Molecular Devices) and data were analyzed in SoftMax using a 4-parameter logistic fit.

P815 mastocytoma cells = assay: P815 mastocytoma tumor model; format: in vivo, DBA/2 mice
Method: P815 mastocytoma cells were derived from DBA/2 mice after methylcholanthrene (MCA) treatment. Injection of 5×10^4 cells SC can result in mortality approximately 35 days post tumor inoculation.
DBA/2 mice (6-10 weeks of age, females) were first challenged with 5×10^4 live P815 cells injected SC in the flank. Six days later, the mice were treated with murine B7-DC-Ig via IP injection. […] Control groups were treated with vehicle only or with murine IgG. Tumor size was measured with digital calipers every 2-3 days. Mice were euthanized and defined as dead when their tumor size reached or exceeded 1000 mm^3, according to protocols approved by the Institutional Animal Care and Use Committee (IACUC) of the American Red Cross (ARC; the site of Amplimmune's vivarium). Surviving tumor free mice were re-challenged with P815 tumor cells on Day 52.
The tumor-free mice were then re-challenged with 5×10^4 P815 cells administered to the flank opposite the primary inoculation site on Day 52.

[4] = test system: more aggressive, less immunogenic tumor types; assay: Activity against more aggressive, less immunogenic tumor types; format: in vivo; settings: single agent
[5] = 100 ug per injection IP, 2 times per week, up to 6 doses
[6] = 5 mice per group, 5 mg/kg IP biw 3 weeks starting Day 6

T1 sequence (Q02242 with tags, fused parts or gaps limits assumed): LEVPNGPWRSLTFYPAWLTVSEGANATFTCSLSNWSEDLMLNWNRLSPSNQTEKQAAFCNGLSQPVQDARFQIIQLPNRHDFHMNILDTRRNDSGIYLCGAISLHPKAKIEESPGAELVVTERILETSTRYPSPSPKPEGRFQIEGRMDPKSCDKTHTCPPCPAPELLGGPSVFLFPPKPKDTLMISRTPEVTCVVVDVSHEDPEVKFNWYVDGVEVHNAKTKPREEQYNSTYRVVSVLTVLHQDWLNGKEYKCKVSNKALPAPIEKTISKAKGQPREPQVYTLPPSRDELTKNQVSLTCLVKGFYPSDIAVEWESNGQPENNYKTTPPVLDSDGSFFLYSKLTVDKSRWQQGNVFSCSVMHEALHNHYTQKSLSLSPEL
T2 sequence (Q15116 with tags, fused parts or gaps limits assumed): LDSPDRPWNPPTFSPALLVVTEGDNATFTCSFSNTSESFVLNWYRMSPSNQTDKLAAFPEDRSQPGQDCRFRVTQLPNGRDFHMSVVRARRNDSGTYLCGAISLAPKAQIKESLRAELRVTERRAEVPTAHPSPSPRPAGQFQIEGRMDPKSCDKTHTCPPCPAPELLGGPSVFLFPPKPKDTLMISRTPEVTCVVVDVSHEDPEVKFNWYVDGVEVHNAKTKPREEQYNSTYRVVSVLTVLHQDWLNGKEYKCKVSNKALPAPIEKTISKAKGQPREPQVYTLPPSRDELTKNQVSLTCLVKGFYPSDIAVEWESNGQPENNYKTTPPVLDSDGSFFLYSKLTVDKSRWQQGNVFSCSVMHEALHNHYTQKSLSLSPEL

K113S: murine B7-DC-Ig with the K113S substitution
PD-1 binding activity (OD450) [1]: reduced binding to PD-1

O=P1(N(CCCl)CCCl)NCCCO1 (stereo not shown) [CTX, cyclophosphamide]
outcome of mice with established tumors [2]: died as a result of tumor growth or were euthanized

B7-DC-Ig: human PD-L2 (B7-DC) extracellular domain fused to hinge, CH2 and CH3 of human immunoglobulin Cγ1 chain (SEQ ID NO:56/57)
PD-1 binding activity (OD450) [3]: binding

D111S: murine B7-DC-Ig with the D111S substitution
PD-1 binding activity (OD450) [1]: reduced binding to PD-1

B1: Murine B7-DC-Ig: murine PD-L2 (B7-DC) extracellular domain fused to hinge, CH2 and CH3 of murine immunoglobulin Cγ2a chain (SEQ ID NO:53/54) (protein, listed as Mus musculus)
chain: LFTVTAPKEVYTVDVGSSVSLECDFDRRECTELEGIRASLQKVENDTSLQSERATLLEEQLPLGKALFHIPSVQVRDSGQYRCLVICGAAWDYKYLTVKVKASYMRIDTRILEVPGTGEVQLTCQARGYPLAEVSWQNVSVPANTSHIRTPEGLYQVTSVLRLKPQPSRNFSCMFWNAHMKELTSAIIDPLSRMEPKVPRTWEPRGPTIKPCPPCKCPAPNLLGGPSVFIFPPKIKDVLMISLSPIVTCVVVDVSEDDPDVQISWFVNNVEVHTAQTQTHREDYNSTLRVVSALPIQHQDWMSGKEFKCKVNNKDLPAPIERTISKPKGSVRAPQVYVLPPPEEEMTKKQVTLTCMVTDFMPEDIYVEWTNNGKTELNYKNTEPVLDSDGSYFMYSKLRVEKKNWVERNSYSCSVVHEGLHNHHTTKSFSRTPGK
mice in which tumor was eradicated (P815 mastocytoma cells; [5]): two | mice responded to treatment (P815 mastocytoma cells; [5]): Four of 5 | mice with delayed tumor growth during treatment (P815 mastocytoma cells; [5]): two | # Tumor <500 mm^3 (P815 mastocytoma cells; [6]): 2 | # Tumor free (P815 mastocytoma cells; [6]): 2 | # Tumor ≧500 mm^3 (P815 mastocytoma cells; [6]): 1 | outcome of re-challenge of tumor-free mice (P815 mastocytoma cells; re-challenged with 5×10^4 P815 cells on Day 52, opposite flank, through 74 days after primary inoculation): remained tumor free | anti-tumor activity alone in the P815 model (P815 mastocytoma cells; single agent): effective | anti-tumor activity alone against more aggressive, less immunogenic tumor types [4]: minimal activity
